This series deals with the molecule itself. Nature of the series: other fluorescence titration; aliquots of protein added to poly(εA), enhancement of ethenoadenylate fluorescence; 0.45 M NaCl, 0.02 M HEPES pH 7.68, 1x10^-4 M EDTA/Na+, 20°C; McGhee-von Hippel cooperative model, n = 8; ω is the cooperativity between adjacent proteins bound on the polynucleotide.

The record followed here is publication doi:10.1101/2025.09.02.673855, “Bacteriophage T4 gene 32 protein: Insights into its Interaction with ssDNA, binding cooperativity, and conformational change” (bioRxiv, 2025).

Positions count from the first letter of the chain named. Numbers in names are those of the source.

B1: Bacteriophage T4 gene 32 protein, full-length protein (1-301) (natural protein, UniProt P03695 1-301, looked up)
chain: MFKRKSTAELAAQMAKLNGNKGFSSEDKGEWKLKLDNAGNGQAVIRFLPSKNDEQAPFAILVNHGFKKNGKWYIETCSSTHGDYDSCPVCQYISKNDLYNTDNKEYSLVKRKTSYWANILVVKDPAAPENEGKVFKYRFGKKIWDKINAMIAVDVEMGETPVDVTCPWEGANFVLKVKQVSGFSNYDESKFLNQSAIPNIDDESFQKELFEQMVDLSEMTSKDKFKSFEELNTKFGQVMGTAVMGGAAATAAKKADKVADDLDAFNVDDFNTKTEDDFMSSSSGSSSSADDTDLDDLLNDL
notes: also called gp32; wild-type gp32; source: expression plasmid pYS6, induced, overexpressed and purified as previously described
For B1, the “cooperativity parameter ω (on poly(εA))” value came to 2000.

B2: gp32 variant E229A, E230A (natural protein, bacteriophage T4, UniProt P03695 1-301, looked up)
chain: B1 chain with E229A, E230A
notes: gene 32 protein of bacteriophage T4 with two negative charges removed within the C helix (228-237); source: pYS6 variant, induced, overexpressed and purified as previously described
With B2, the “cooperativity parameter ω (on poly(εA))” value was determined as 1000.

B3: gp32 variant D215A, E218A, D223A (natural protein, bacteriophage T4, UniProt P03695 1-301, looked up)
chain: B1 chain with D215A, E218A, D223A
notes: gene 32 protein of bacteriophage T4 with three negative charges removed within and adjacent to the B helix (216-220); source: pYS6 variant, induced, overexpressed and purified as previously described
Regarding B3, the “cooperativity parameter ω (on poly(εA))” value stood at 120.
